Experiment: yeast display, Sf9 membrane polyspecificity reagent, FACS + sequencing; frameworks hold sequencing errors
Outline: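 Genes from sorted yeast were amplified by colony PCR, read by MiSeq 2 × 250 sequencing and filtered on CDR length. These cells carried a synthetic nanobody library in Saccharomyces cerevisiae BJ5465 and were sorted by FACS into low and high (top ~1%) gates on anti-HA and streptavidin fluorescence. Polyreactivity is labelled according to the gate of origin.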

| Sequence | polyreactivity (PSR sort gate) |
| --- | --- |
| QVQLVESGGGLVQAGGSLRLSCDASGSTFYWYAMGWYRQAPGKERELVAAITYSSGRTYYADSVKGRFTISRDNAKNTVYLQMNSLKPEDTAVYYCGWSALNGYDYWGQGTQVTVSS | high polyreactivity |
| QVQLVESGGGLVQAGGRLRLSCAASGTFRRNAMGWYRQAPGKERELVAAIRWSGGITYYADSVKGRFTISRDNAKNTVYLQMNSLKPEDTADYYCSGQRYYGFGKTYYYWGQGTQVTVSS | high polyreactivity |
| QVQLVESGGGLVQAGGSLRLSCAASGRIFRWYAMGWYRQAPGKERELVATISSTGGSTYYADSVKGRFTISRDNAKNTVYLQMNSLKPEDTAVYYCNALSFITITVYSEGDYWGQGTQVTVSS | low polyreactivity |
| QVQLVESGAGLVQAGGSLRLSCAASGRTFRPNPMGWYRPAPWKDRELVASITSGGRTNYADSVKGRFTISRDNAKNTVYLQMNSLKPEDTAVYYCAADHYHGYWKYDYWGQGTQVTVSS | low polyreactivity |
| QVQLVESGGGLVQAGGSLRLSCAASGFTFAVYVMGWYRPGRGKERELVAAISRSGGSTYYADSVKGRFTISRDNANNTDYLQMNSLNPEDTAVYYCAASPKRVLRESGDYCGQGTQVTVSS | high polyreactivity |
| QVQLVESGGGLVQAGGSLRLSCAASGSTFVDYDMGWYRQAPGKERELVAAITYSGARTYYADSVKGRFTISRDNAKNTVYLQMNSLKPEDTAVYYCNADQRTASDQLEFDYWGQGTQVTVSS | low polyreactivity |
| QVQLVESGGGLVQAGGSLRLSCAASGRIFLFYAMGWYRTAPGKERELVAGIRSGGSTNYADSVKGRFTISRDNAKNTVYLQMNSLKQEDTAVYYSAAASYFVYPRLEGYWGQGTQVTVSS | low polyreactivity |
| QVQLVESGGGLVQAGGSLRLSCAASGLTFADYAMGWYRQAPGKERELVAAISRRGGSTYYADSVKGRFTISRDNAKNTVYLQMNSLKPEDTAVYYCAAYAYDVAFKRYKFDYWGQGTQVTVSS | high polyreactivity |
| QVQLVESGGGLVQAGGSLRLSCAASGSTFLSYAMGWYRQAPGKERELVARITSSGGNTYYADSVKGRFTISRDNAKNTVYLQMNSLKPEDTAVYYCAVSLEDQQYIFDYWGQGTQVTVSS | low polyreactivity |
| QVQLVESGGGLVQAGGSLRLSCADSGRTIDVYAMGWYRHAPGKEREFVAAISTGASTCYADSVKGRFTISRDNAKNTVYLQMNSLKTEDTGVYYCAKRVTRWYGYWGQGTQVTVSA | high polyreactivity |
| QVQLVESGGGLVQAGGSLRLSCAASGLTFASYAMGWYRQAPGKERELVAAISSSGRTYYADSVKGRFTISRDNAKNTVYLQMNSLKPEDTAVYYCATRGLSRYYDYYYWGQGTQVTVSS | high polyreactivity |
| QVQLVESGGGLVQAGGSLRLSCAASGRTSVWYTMGWYRQAPGKEREFVASITGSGTYYADSVKGRFTISRDNAKNTVYLQMNSLKPEDTAVYYCAKRGYGYWGQGTQVTVSS | high polyreactivity |
| QVQLVESGGGLVQAGGSLRLSCAASGIIFYLNAMGWYRQAPGKERELVAAISSSGGRTNYADSVKGRFTISRDNAKNSVYLQMNSLKPEDTAVYFCAAVITFYRYPPGETYYYWGQGTQVTVSS | high polyreactivity |
| QVQLVESGGGLVQAGGSLRLRCAASGRIFGFYAMGWYRQAPGKERELVAAITSSAGRTRYADSVKGRFTISRDNAKNTVYLQMNSLKPEDTAVYYCAARTVGRKAGFDYWGQGTQVTVSS | high polyreactivity |
| QVQLVESGGGLVQAGGSLRLSCAASGSTYNAMGWYRQAPGKEREFVAAISWGGGSTYYADSVKGRFTISRDNAKNTVYLQMNSLKPEDTAVYYCAKTPNYRIRHDYWGQGTQVTVSS | low polyreactivity |
| QVQLVESGGGLVQAGGSLRLSCAASGRIFNGNAMGWYRQAPGNERELVAAISGSGGSTYYADSVKGRFTISRDNAKNTVYLQMNSLKPEDTAVYYCATKRVVHYNYWGQGTQVTVSS | high polyreactivity |
| QEQQQESGGGLVQAGGSQRLSCAASGYIFYFQYMGWYRQAPGKEREFVAAISDGANTNYADSVKGRFTISRDNAINTEYLQMNSLKPEDTAVYYCAVYADENYYYIYWGQGTQVTVSS | low polyreactivity |
| QVQLVESGGGLVQAGGILRLTCAASGRTNTYNAMGSYRQAPGKERELVAAITWSGGSTYYADSVKGRFTISRDNAKNTVYLQMNSLKPEDTAVYYCAKEFYYSSGFDYWGQGTQVTVSS | low polyreactivity |
| QVQLVESVGGLVQAGGSLRIICAASGSIFTDNAMGWYRQAPGTERELVAAISRSGGNTYYADSVKGRFTISRDNAKNTVYLQMNSLKPEDTAVYYCAARQKGTGNYWGQGTQVTVSS | high polyreactivity |
| QVQLVQSGGGLVQAGGSLRLSCAASGFTLRRNAMGWYRQAPGKERELVAAISSSGSTYYADSVKGRFTISRDNAKNTVYLQMNSLKPEDTAVYYCAASATYKVRGGYWGQGTQVTVSS | high polyreactivity |
| QVQLVESGGGLVQAGGSLRLSCAASGSTFGRYAMGWYRQAPGKERELVAAITRSGGRTYYADSVKGRFTISRDNAKNTVYLQLNSLKPEDTAVYYCAAVGNLYYTSHWQYDYWGQGTQVTVSS | high polyreactivity |
| QVQLVESAGGLVQAGGSLRLSCAATGFIFWGNAMGWDRQAPGKERELVAGIRSLGGTTSYADSVKGRFTISRDNAKNTVYLQMNSLKPEDTAVYYCAAKYSYYTYAGDGGLFSWSYGYWGQGTQVTVSS | low polyreactivity |

| Sequence | polyreactivity (PSR sort gate) |
| --- | --- |
| QVQLVESGGGLVQAGGSLRLSCAASGGIFEAYVMGWYRQAPGKERELVAAISFRGGSTYYADSVKGRFTISRDNAKNTVYLQMNSLKPEDTAVYYCAADYRHQGYDYWGLGTQVTVSS | low polyreactivity |
| QVQLVESGGGLVQAGGSLRLSCAASGIIFGQNAMGWYRQAPGKERELVAAITISGGSTYYADSVKGRFTISRDNAKNTVYLQMNSLKPEDTAVYYCAARRVTWKDIARGYRYGYWGQGTQVTVSS | low polyreactivity |
| QVQLVESGGGLVQAGGSLRLSCAASGRTFYGYVMGWYRQAPGQERELVAAISRSVGSTYYADSVKGRFTISRDNAKNTVYLQMNSLKPEDTAVYYCATSVYGGVDYWGQGTQVTVSS | high polyreactivity |
| QVQLVESGGGLVQAGGSLRLSCAASGRTFPINTMGWSRQAPGKEREFVAAITLGGRTYYADSVKGRFTISRDNAKNTVYLQMNSLKPEDTAVYYCAVAQPGYWLYRHFLPGSDYWGQGTQVTVSS | high polyreactivity |
| QVQLVESGGGLVQAGGSHRLSCAASGLTFFTYAMGWYRQAPGKERELVATISSRGGRTYYADSVKGRFTISRDNAKNTVYLQMNSLKPEDTAVYYCAARGVWKSKHNYWGQGTQVTVSS | high polyreactivity |
| QVQLVESGGGLVQAGGSLRLSCAASGNTFAYNVMGWYRQAPGKERELVAAISRSGGSTYYADSVKGRFTISRDNAKNTVYLQMNSLKPEDTAVYYCAAVGRRVRPEGSYNRWGHDYWGQGTQVTVSS | high polyreactivity |
| QVQLVESGGGLVQAGGSLRLSCAASGRTFPAYAMGWYRQAPRKERELVARISYSGGNTYYADSVKGRFTISRDNAKNTVYLQMNSLKPEDTAVYYCAATRSHYPYRSGGDYWGQGTQVTVSS | low polyreactivity |
| QVQLVESGGGLVQAGGSLRLSCAASGSTFVFYAMGLYRQAPGKERELVADITSGGRTSYADSVKGRFTISRDNAKNTVYLQMNSLKPEDTAVYYCAALTRWYAWYDYWGQGTQVTVSS | high polyreactivity |
| QVQLVESRGGLVQAGGSLRLSCAASGFTFRLYAMGWSRQAPGKERELVAALTGRGGNTYYADSVMGRFTISRDNAKNTVYLQRNSLNPEDTAVYYCNRYTQWVGYDYWGQGTQVTVSS | high polyreactivity |
| QVQLVESGGGLVQAGGSLRLSCAASGSTFRGYAMGWYRQAPGKERELVAAITGSGDRTRYADSVKGRFTISRDNAKNTVYIQMNSLKPEDTAVYYCAKFCPHWAYYSWGQGTQVTVSS | high polyreactivity |
| QVQLVESGGGIVQAGGSLRLSCAASGIIFYGYAMGWYRQAPGKERELVAVITSGGSTNYADSVKGRFTISRDNAKNTVYLQMNSLKPEDTAVYYCNAGYVSPDYDSWGQGTQVTVSS | high polyreactivity |
| QVQLVESGGGLVQAGGSLRLSCAASGFIFYSNAMGWYRQAPGKERELVAAISRSGGSTYYADSVKGRFTISRDNAKNTVYLQMNSLKPEDTAVYYCNADYVYRRYGYWGQGSQVTVSS | high polyreactivity |
| QVHLVESVGGLFQAGGSLRLSCAPSGYIYVANVKGWYRQAPGKERELVAAINRRTGITYYADSVKGRCTNSRDNAKNTVNLQMNSLKTEDTAVYYCAALAQSTTYTRPYDYWGQGTQVTVSS | low polyreactivity |
| QVQLVESGGGLVQAGGSLRLSCAASGSTFSRYAMGWYRQAPGKERELVAAIRRSAGSTYYADSVKGRFTISRDNAKNTVYLQMNSLKPEDTAVYYCAAAGRYDYWGQGTQVTVSS | high polyreactivity |
| QVQLVDSGGGLVQAGGSLRLICDASGFIFFAYAMGWYRQAPGKERELVAVITSGGGTNYADSVKGRFTFSRDNAKNTVYLQMTSLKPEDTAVYYCNADYFFASTEFYYWGQGTQVTVSS | low polyreactivity |
| QVHLVESGGGLVQAGGSLRLSCAASGSTFLLNAMGWYRQATGKERELVAGITGSGGRTYYADSVKGRFTISRDNAKNTVYLQMNSLKPEDTAVYYCAAYRNLYWYQHEYWGQGTLVTVSS | low polyreactivity |
| QVQLVESGGGLVQAGGSLSLSCAASGSIFVIYTMGWYRPAPGKERELVAGITWSTGNTYYADSVKGRFTISRDNAKNTFYLQMNSLKPEDTAVYSCAARTTSRWRSGAYYYWGQGTQVTVSS | high polyreactivity |
| QVQLVESGGGLVQAGGSLRLSCAASGSTIPTNAMGWYSQAPGKERELVAAITSTGSTYADSVKGRFTISRDNAKNTDYLQMNSLKPEDTAVYYCAADTQWTTPYDYWGQGTPVTVSS | low polyreactivity |
| QVQLVESGGGLVQAGGSLRLSCAASGRIFSQNAMGWYRQAPGKERELVAVISRGGSTNYADSVKGRFTISRDNAKNTVYLQMNSLKPEDTAVYYCAADYAYIRSVWKWFIGDYWGQGTQVTVSS | low polyreactivity |
| QVQLVESGGGLVQAGGSLRLSCAASGFIFGWSGMGWYRLAPGKERELVAAITGSGVRTYYAASVKGRFTISRDNAENTVYLQMNRLKPEDTAVYYCARAGGYVGRGYKDQDGRGDYGGQGTQVTVSS | high polyreactivity |
| QVQLVESGGGLVQAGGSLRLSCAASGFIFDYYAMGWYRQAPGKERELVAAITRDGGGTYYADSVKGRFTISRDNAKNTVYLQMNSLKPEDTAVYYCAARRAVRLYYWGQGTQVTVSS | high polyreactivity |
